{"source": "patent US20240279307A1", "about": "(published 2024)", "key": {"[1]": {"target": "T1, HMHA1 (Rho GTPase-activating protein 45), minor histocompatibility antigen HA-1H, R139H polymorphism peptide … (human)", "T1 peptide": "VLHDDLLEA", "experiment": "multimer staining"}, "[2]": {"target": "T2, HMHA1, wild type (HA-1R; HA-1H-negative, rs1801284 G/G) peptide on HLA-A*02:01 (human)", "T2 peptide": "VLRDDLLEA", "experiment": "killing"}}}
{"binder": "TCR1 (TCR, V domains shown) Valpha: SQQGEEDPQALSIQEGENATMNCSYKTSINNLQWYRQNSGRGLVHLILIRSNEREKHSGRLRVTLDTSKKSSSLLITASRAADTASYFCATKRDSGAGSYQLTFGKGTKLSVIP Vbeta: DTGVSQDPRHKITKRGQNVTFRCDPISEHNRLYWYRQTLGQGPEFLTYFQNEAQLEKSRLLSDRFSAERPKGSFSTLEIQRTEQGDSAMYLCASSSTGGHNEQFFGPGTRLTVL", "values": [{"measurement": "binding result", "setting": "[1]", "result": "recognises"}, {"measurement": "binding result", "setting": "[2]", "result": "no recognition"}]}
{"binder": "TCR2 (TCR, V domains shown) Valpha: KQEVTQIPAALSVPEGENLVLNCSFTDSAIYNLQWFRQDPGKGLTSLLLIQSSQREQTSGRLNASLDKSSGRSTLYIAASQPGDSATYLCAVIGLGGTYKYIFGTGTRLKVLA Vbeta: DTGVSQDPRHKITKRGQNVTFRCDPISEHNRLYWYRQTLGQGPEFLTYFQNEAQLEKSRLLSDRFSAERPKGSFSTLEIQRTEQGDSAMYLCASSLVKGEKLFFGSGTQLSVL", "values": [{"measurement": "binding result", "setting": "[1]", "result": "recognises"}, {"measurement": "binding result", "setting": "[2]", "result": "no recognition"}]}
{"binder": "TCR5 (TCR, V domains shown) Valpha: SQQGEEDPQALSIQEGENATMNCSYKTSINNLQWYRQNSGRGLVHLILIRSNEREKHSGRLRVTLDTSKKSSSLLITASRAADTASYFCATNSGNTPLVFGKGTRLSVIA Vbeta: DTGVSQDPRHKITKRGQNVTFRCDPISEHNRLYWYRQTLGQGPEFLTYFQNEAQLEKSRLLSDRFSAERPKGSFSTLEIQRTEQGDSAMYLCASSLTTLDEQYVGPGTRLTVT", "values": [{"measurement": "binding result", "setting": "[1]", "result": "recognises"}, {"measurement": "binding result", "setting": "[2]", "result": "no recognition"}]}
{"binder": "TCR10 (TCR, V domains shown) Valpha: KNQVEQSPQSLIILEGKNCTLQCNYTVSPFSNLRWYKQDTGRGPVSLTIMTFSENTKSNGRYTATLDADTKQSSLHITASQLSDSASYICVVDSGGGADGLTFGKGTHLIIQP Vbeta: DTGVSQDPRHKITKRGQNVTFRCDPISEHNRLYWYRQTLGQGPEFLTYFQNEAQLEKSRLLSDRFSAERPKGSFSTLEIQRTEQGDSAMYLCASSMLTNYEQYFGPGTRLTVT", "values": [{"measurement": "binding result", "setting": "[1]", "result": "recognises"}, {"measurement": "binding result", "setting": "[2]", "result": "no recognition"}]}
{"binder": "TCR16 (TCR, V domains shown) Valpha: KQEVTQIPAALSVPEGENLVLNCSFTDSAIYNLQWFRQDPGKGLTSLLLIQSSQREQTSGRLNASLDKSSGRSTLYIAASQPGDSATYLCAVHLLNDYKLSFGAGTTVTVRA Vbeta: DTGVSQDPRHKITKRGQNVTFRCDPISEHNRLYWYRQTLGQGPEFLTYFQNEAQLEKSRLLSDRFSAERPKGSFSTLEIQRTEQGDSAMYLCASSLVVGNEQFFGPGTRLTVL", "values": [{"measurement": "binding result", "setting": "[1]", "result": "recognises"}, {"measurement": "binding result", "setting": "[2]", "result": "no recognition"}]}
